Experimental data published in the DeepSol protein solubility set.

test: soluble on expression in E. coli; label from the status in PepcDB or PDB records

| Sequence | soluble on expression in E. coli |
| --- | --- |
| MGQLFSSPQSEHQDLASSFTEYFKKFKTGNKIISQDIITLVELSLAKGNIQEANSAIRNALKEIDSTPLNVAVTGESGSGKSSFINTLRGIGHEEKGAAKTGVVEETMERHPYKHPNMPNVVFWDLPGIGTQTFPPKTYLEKMKFYEYDFFIIISATRFKKNDIDLAKAISMMKKEFYFVRTKVDSDLNNEEDFKPQNFDREKVLQNIRLNCVNTFKENGIAEPQIFLVSNKNVCHYDFPVLIDRLISDLPLYKRQNFMLSLPNITESAIEKKQQFLKQSIWLEGFAPDLLSIKPSLAFLNSDLETLEKSMKFYRSVFGVDEASLKSLATAWKIPVDQVEAMMKSPAVFKPTDEETIQERLSRYVLEICFANRYLFRKNLFLRNVFYLKYYFLDMVTEDAKTLLKEIYLRNKLPSN | not soluble |
| MGQTLFDKVWNRHVLYGKLGEPQLLYIDLHLIHEVTSPQAFEGLRLQNRKLRRPDLTFATLDHNVPTIDIFNIKDEIANKQITTLQKNAIDFGVHIFDMGSDEQGIVHMVGPETGLTQPGKTIVCGDSHTATHGAFGAIAFGIGTSEVEHVFATQTLWQTKPKN | not soluble |
| MGRAAEVPGPEPGQQEQLVFGSGDAVELSCPPPGGGPMGPTVWVKDGTGLVPSERVLVGPQRLQVLNASHEDSGAYSCRQRLTQRVLCHFSVRVTDAPSSGDDEDGEDEAEDTGVDTGAPYWTRPERMDKKLLAVPAANTVRFRCPAAGNPTPSISWLKNGREFRGEHRIGGIKLRHQQWSLVMESVVPSDRGNYTCVVENKFGSIRQTYTLDVLERSPHRPILQAGLPANQTAVLGSDVEFHCKVYSDAQPHIQWLKHVEVNGSKVGPDGTPYVTVLKTAGANTTDKELEVLSLHNVTFEDAGEYTCLAGNSIGFSHHSAWLVVLPAEEELVE | soluble |
| MGREFLDLFEQWAESYDQSVEGYDEQYRDVFAGYDRILSTVADKAGQVVLEFGIGTGNLTKKLLERGKTVYGIEPSAPMRKKAAEKLGERAVIMDGDFLQFPLPPEPIDTIASTYAFHHLTDAEKDEAIAKYSQLLHSGGKIVFADTAFRDKEAFRQTVEAARARGFHDLADDLEREYYTTLDVLASLFANHGFSVSFAQQNAFVWVMEAVKQTTLEHHHHHH | soluble |
| MGRGSFTQIDTPDQVTERMRALLVKLESPAVTDLTATFSEPGIDVTPARLPDLYRGEPLTLSARMGQARGTLTLTGRIGGQPWQTQLHLDAAQDGTGIGKLWARAKIAEAETARLTGGLTAEAADAAILRLALDHGLTTRLTSLVAVDATPRRPAGMRLASTELPLNLPAGWDFETVFGTQDELEHHHHHH | not soluble |
| MGRIKRGLDYFPMSTSFMHDRMVRRIMRREGDSAFATLVETLSYIYAGKGYYISVGDEFYEELVDSLYSTELDDVKRIISLSVEYGLFDAGLFRQYNILTSADIQRQYLFITKRRSSALIEPDYCLLESEEITSYRSSQSGKSSTDDSLDSECAEALNGDADHKTACTVTSSFDSVTMEDEIATSGTQNKRKQIKINQNKVNHLPNPPQGGDEGGKYLKSRTAVTQEDIDCLQPPCDGVQRNFQGLTDNLRLYKVPPSEQYAIILKSNFGAIGNPVWKGFNTIRGSNGKIRLPGHYLLSIIN | not soluble |
| MGRINELRMISRVAQMYFSEHKRQAEIAQHLNLSQATVSRMLKRAEAEGIVRTSIIPPPGTYSDLEAQLRERFDLPEAIVVDCSEDRDGAIMARIGEAAAHFLEVTLSQNEIIGVSSWSQTIFKMVENIHPLKGAKARYIVQTLGGMGDPSVQTHATQITTRLARLTEAEPKLLPVPGVATSREAKLLMLADPFVRETIDLFGSITLAIVGVGAVEPSELLARSGNIFSTKELADLAQAGAVGDISLRFFDKDGKPVKTPLDDRVIGLPLENLSNVDRVIALAGGLKKTEAIAGALRTGVIDVLVTDKFTAERLVGQET | soluble |
| MGRQAMKKFVDVSHTIENGLITYKGLPAPIICDYLSREESRSFYEPGTEFQIGKIEMVTNTGTYIDVPFHRYADGKDLSEATVEQMAGLEGVVIPVDKHVKKIDVDVFKSADLHGKAVLIYTGWDEHWNTERYFEDHPYVTEEAANYLKEQKVALVGIDSHNIDDTSGKRRPVHTILLRADILIVEHLCKLGQLVDQSFLFYAVAPKFKGAGTFPVRAFAEIVLEHHHHHH | soluble |
| MGRTQPCGGSCISSTYTLKKNRPCGWSAPPGSRILNQQPQGWPHNQTGCNVHKKIVVPSATDMATRFTQDSFVFDCLSMYYVIDDPWAENCLAAGVNATNVTFGTEQPWDIVLRDFDSGLEKIERSPYLALATNRQEIDAANKQGKLAVIIGTQGSAMVDLEFHRLRTMHRLGMRYFGLAYTGPTMFADGCGESRNAGLSFAGIELIDACNDLGLILDLSHVGHRSREETVARSRFPVCTHSNSYALNPNDRNTTDETARAIRAKGGIMGICGLPKTVHPENATLNELLDHADHWVKTIDAAHVGFGLDFVEAYKSDRSTMPAASRLWRTRRPDIFGTVEEFHLQDYPLGIASIKQLPNLTQGLFDRGYAEKEVAGIIGGNWLRHFTEVYG | not soluble |
| MGRVFMVDLEGNIYICKLCKTHLSTDQDIMSKSFQCKNGRAYLFNNVVNVSVGEKEDRMMITGLHNVVDIFCVGCGSNVGWKYEFAHEKSQKYKEGKSVLELYKISGPHDSNDLVSDGDDA | not soluble |
| MGSDKIHHHHHHAAGQPRLVKSLVPDMPSQAPDYFCTWNLQGYVASYKSTELTRAAMTEDYLFGDGLYQNWVDCYPAIRKDLYFVMDDSWDIPKDVNDSPNLYLGCVELSSDRFPSFRGDAVERLKQLSEQIKSKGWKGVGGWICAQKAETHAAIPEEEYWKQRIKAANAAGFDYWKVDWGKEDRNGEWRRKLTAIGKRYAPHLYIEHALRNEFIEFSDVFRTYDVENITAQPITIRRICDLLPYKTVEGAKGIINCEDEPYIAVGLGCAIGVMRHPFAETLPDGAQDFVFPPVGRDIKRRLDEVVRGVRWHRIAEPFAVGYGTFAIDSVKLTDHWILQENETWNKGRTVGADVTADAPARVARNMKLPEVSGAPLSVCPFVLASRYPNGAVAVSTIGRNVGREYVTEKVAVSISVDRWDIPIGLFGYFKEVTMVFPSPLKTGKHTVFAQDLAGENPVDITSNVVIKDNRLIIPGEVISRVGLMNASEGDCSDPGMVIRVM | not soluble |
| MGSDKIHHHHHHAAGSPEEDMEDRVRIDPVAGGYYPSISPSAQTRGATPDGETLKDRPIFLLEDGSTIRLVVYDDAKNLLEEYSKAYLVRNAGTSGSSLLYPCEVDDNGAVISSSSTPLYMKAGTYYFRILSPAKALNSKGFVNIGNGEYLLATDDRYTQTAMTAVTITKIDEGGTLNNVQTLYLPPIINQTARMQFTVRAGEGVHTLEMLAEGIEISGIQQPLDNTTSFDWVNGDVLPVKVGDQSASVRITQATRNADNSLVAHTGVLPTDARSHSISVLLNLKVNGNPTQYQMLLTGLYLTAGHSYNYTATVKISNGVTVLTWQNRSWTENVVMDK | not soluble |
| MGSDKIHHHHHHAAVNRVGMGSSWRAGVKVGVGVSYQFEPGWIGLKSGLYYANRGYSLGDYPRTTESATYVLKEMMTGGITQHFLQLPVMADFSWKVSKEVRMHLAVGMYAGVSVKNDTNWGSSFTMGYSKEPQALGKYVKSTGLGYSYGYGHSGYDEAENADHPFRDVNSFDWGLTTSFGIEVNNWVMNLGYDLSLGDEGGNYKIDGDNFSLYEVRSVGANYNTMSLTVGYKFKL | not soluble |
| MGSDKIHHHHHHACDGILEGIYDSPAASDSNELGFIRTDPSTHSGTIYIDATDYRRWTFIDFHTQKVDSVNVTDSEQKEPEEWDIAVHRYDVKTNAGAVLETGFTGFSALRNADAMPEGAYVEDVWTTAKIAIDMSGMMDGNIVYMESYYNEELSKWLNVDKSNMPPTYTLSNKVYMVKLKDGTYAAVRLTNYMNASGVKGFMTIDYIYPFEL | not soluble |
| MGSDKIHHHHHHACSSEEGGSQAMGGKGAVILDLAAETVFDTKTKAVDESTYLTDRPLADYKVKILDAQGHVVSGCEWKYSERPTGLIELSNGSYTVVASDGEEFNVNASTRNGIYMYGSSRFDVNSDKVAAVNVACKPACGKLVVKFGDTMATYFSDYAVHFSTQAAGENGSIIWPKGDTDPLYVKLAEAGENVTATFQFTKKADGTNAEVNTLTREMKWGSMWTITVNPKVEDTTGKVGITITFDDSTNDKPIDIEIPSDWL | not soluble |
| MGSDKIHHHHHHADDSVKIGFITDMSGLYADIDGQGGLEAIRMAVADFGGKVNGKPITVVYADHQNKADIAASRAREWFDRDGVDMLIGGTNSATGLSMNTVAGEKKKVYISIGAGADTLTNEQCTPYTVHYAYDTTALAKGTGSAVTKQGGKTWYFLTADYAFGKALEKNTADVVKANGGQVLGAVRHPLSASDFSSFLLQAQASKAQILGLANAGGDTINSIKAAKEFGITKTMKLAALLVFIDDIHSLGLETTQGLVLTDSWYWNKDATTRKWAERYFDKMKKMPSSLQAADYSATMTYLNAVKAVGSTDSDKVMAQLKKTKIDDFYAKGYIRQDGSMIHDMYLMQVKTPAESREPWDYYKITATIPGEQAFTTKAETRCALWK | not soluble |
| MGSDKIHHHHHHADNAPAKVQTALKKMYPKADGIAWSQDGGYYCADFMMNGYEKNVWFNAQGQWQMTQTEWGDTDELSATVYNAYASGPYSGWQVEDVTYVEFPKWQPIIVIKVGQQNVDIQYQLFYSPNGTLLRTRNVSYMGDILGPGTFL | not soluble |
| MGSDKIHHHHHHADNNKWKPLFGKNLENANYNPEVWSETDGVLGAVKDESIWTKDEYENFELDLDFKTDVGTNSGVVVYCTDTKDWIPNSVEIQIADDHCEKWGNGKPYEKCGAIYGHLGAVQDKVVKKPGEWNHMRIKCAGQHIMVILNGKKVTEMDMSKWTSGTKNPDGSDIPSWLPKPFAELPTKGFIGLQGKHGDSLIWFRNIKIRSL | not soluble |
| MGSDKIHHHHHHADTASFLFDKYEDAQVLLRAGGELKSKMNYSIVVNKFYFIDPQDKQVKELANPGDILLIKIAGRTFYPESNGAGIEMLPTKPVVYVQYKATARKEAPMGAYGTRSETTAVQSYGTITSNGQSYKLEGEKIIVSNRHHVYWVEKDDKMKQFRNFKQLAKIYSKHRAEVEKYIEDNKVNFEDVDQIVKLCAYADSLK | not soluble |
| MGSDKIHHHHHHAEDDRMTPLSADSGDTADELIPIHISLTGDNDYHSSSFNDASTRSHSPLIAEWVGVKAFSPTRTGEQPDYEGPRIASMELTEDTLPRVSTRATVPAGVYFRLIVFRKSGNNYVFQSVADYASNGTGTPVLERGKLLTRSGTIRVVGYSFNTTADLGDMPSTYAYNSSTVSIPDMSKDFMTFDSGDITNVNSLSHNLPVSFSQKLCKLTITISPTGFPSNTITNCTGVYVKQGGNSTSWKIGPSTNVVAANTNNTAAFSPNTTLNTTIRMVPFAGARTITVHFNTLTVGGRTVNNNTEITSTQSVQLKEGKSYTLKIQFKKGPGINVPASNINLTQNGCTENDKTILSKLRWAEGNLNSQSNYNLTWASSTTDYGYYYIWKNVYVSSGYTGYGAVDPCTRLDESIYGSGWRTPTRSEFISLSRCSNKQLVKYNGIQGMWFMNSSTGLFLPAAGYRDGDKGSGTTATAYTNGTGSYYWSSDLNGNSAYGLYILKNDVFVDANGNRKSGVSVRCVHNL | not soluble |
| MGSDKIHHHHHHAEPVADPMEEEGISVVRYDKLLDEYVRFNSFSALQKMNLEYALPTKLLIEDVLAIGQVSDDHIFQRLKTFYSDTTLVRLIEDVEAKYPELESVEKNLTKGFGKLQKEIPDIMIPMIYTQISAFNESIVLSDSVLGISLDKYMGEDYPLYKRFYYNYQRRTMRPDRIVPDCLVFYLMSQYPFPMDYSRTLLDVMMHYGKINYVVQHLLDYSSSEEALGYSDLEREWCKENQQQMWRYILEQDHLHATDPMVVRQYTRPAPFTNTLGENAPSMVGTWIGTKIITSYMKHHKKTTLRQLLEMSDYERMFTESRFNP | not soluble |
